Reference: the supplement of paper PMC7125110
± gives the standard error. Fewer inactive variants are shown than the library holds.

B1: glmS ribozyme (parent)
chain: AUAAAAGCGCCAGAACUACAGAAAUGUAGUUGACGAGGAGGAGGUUUAUCGAAUUUUCGGCGGAUGCCUCCAAA

What was measured:
Details in all cases: with glucosamine-6-phosphate
glucosamine-6-phosphate [1] = variants of: B1; assay: self-cleavage kobs at 640 uM GlcN6P; higher = faster cleavage; RNA array
In short: (§1)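 Barcoded glmS ribozyme variants on sequenced MiSeq chips were transcribed in situ by E. coli RNA polymerase and tracked through a hybridised Cy3 probe at 37 °C. Glucosamine-6-phosphate (40 μM to 10 mM) in HEPES/KCl/Mg(OAc)2 buffer was flowed in, and tiles were imaged over ~14 h. Signals were normalised to baseline and to non-cleaving reference variants; per-tile medians were fit to one- or two-exponential decays to give kobs. kcat and KM came from weighted Michaelis–Menten fits across concentrations.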

glucosamine-6-phosphate [2] = variants of: B1; assay: self-cleavage kobs at 2500 uM GlcN6P; higher = faster cleavage; RNA array
In short: as §1

glucosamine-6-phosphate [3] = variants of: B1; assay: self-cleavage kobs at 10000 uM GlcN6P; higher = faster cleavage; RNA array
In short: as §1

Variant	self-cleavage kobs at 640 uM GlcN6P (glucosamine-6-phosphate [1]) [s⁻¹]	self-cleavage kobs at 2500 uM GlcN6P (glucosamine-6-phosphate [2]) [s⁻¹]	self-cleavage kobs at 10000 uM GlcN6P (glucosamine-6-phosphate [3]) [s⁻¹]
A14U G29A U47G C50U A53C C70G	0.00022 ± 4.5e-05	0.000165 ± 3.4e-05	–
A36U G41U U55A	< 1e-05	< 1e-05	–
A4C G32U U47G	8.66e-05 ± 2.2e-05	0.000118 ± 3.5e-05	–
C34G G37A U45A C58A	< 1e-05	–	–
G7U G9U U31A G37A A52C C67U U69C	< 1e-05	–	–
G9U G29A U46A G51U C67U	< 1e-05	< 1e-05	–
G9U U49G A52C A64C	< 1e-05	–	–
C10U A33G U54A	< 1e-05	–	–
C11U A15U G38A A53U	< 1e-05	–	–
G9U G44C C58A	< 1e-05	–	–
G7A A39G A64C C71U	< 1e-05	< 1e-05	–
C50G U57G G66U C70G	0.000982 ± 0.0003	0.000139 ± 4.9e-05	–
G13A A14C A42G C70U	4.53e-05 ± 1.8e-05	9.61e-05 ± 1.4e-05	–
G41U U47G A53U	9.96e-05 ± 2.8e-05	0.000276 ± 6.9e-05	–
G32U A33G	< 1e-05	–	–
C34A A39C G59C C61G	< 1e-05	< 1e-05	–
U55A U56A	0.00306 ± 0.00092	0.00346 ± 0.0013	0.0126 ± 0.0024

Variant	self-cleavage kobs at 640 uM GlcN6P (glucosamine-6-phosphate [1]) [s⁻¹]	self-cleavage kobs at 2500 uM GlcN6P (glucosamine-6-phosphate [2]) [s⁻¹]	self-cleavage kobs at 10000 uM GlcN6P (glucosamine-6-phosphate [3]) [s⁻¹]
G32U A42C C58U	< 1e-05	< 1e-05	–
A14G G38C G44A	< 1e-05	< 1e-05	< 1e-05
A15U G32A U46G C50G	8.2e-05 ± 2.3e-05	–	–
G41A A48C A52U	< 1e-05	–	–
G35U A36G C61A	< 1e-05	–	–
U31C G37A A53G	5.04e-05 ± 8.3e-06	0.000126 ± 2e-05	–
G7U G9C G29C A39G U46A A52U U55C C67G C70U	< 1e-05	< 1e-05	–
G7C C10A C71A	< 1e-05	–	–
C11A U54G C67G C71A	0.0001 ± 4e-05	0.000224 ± 8.9e-05	–
C58A C61G C68U	0.000169 ± 7.3e-05	–	–
G35C A36U G38A	< 1e-05	–	–
U30G G37A	9.32e-05 ± 2.2e-05	0.000172 ± 4.2e-05	0.000734 ± 0.00011
G13U C16U G29A	0.000601 ± 0.00017	–	–
G9A G62U G66U	< 1e-05	< 1e-05	–
C8G G41U C61A	< 1e-05	–	–
A36U A53G C58U C67G C70A	0.000184 ± 4.8e-05	0.00115 ± 0.00026	–
